Assay results: patent US20170114115A1

Legend:
Assay in all cases: cell-based or functional assay
[1] = target: human Glucagon-Like Peptide-1 receptor (human) (UniProt P43220)
[2] = target: T1, human glucose-dependent insulinotropic polypeptide receptor (human) (UniProt P48546)
T1 sequence (looked up): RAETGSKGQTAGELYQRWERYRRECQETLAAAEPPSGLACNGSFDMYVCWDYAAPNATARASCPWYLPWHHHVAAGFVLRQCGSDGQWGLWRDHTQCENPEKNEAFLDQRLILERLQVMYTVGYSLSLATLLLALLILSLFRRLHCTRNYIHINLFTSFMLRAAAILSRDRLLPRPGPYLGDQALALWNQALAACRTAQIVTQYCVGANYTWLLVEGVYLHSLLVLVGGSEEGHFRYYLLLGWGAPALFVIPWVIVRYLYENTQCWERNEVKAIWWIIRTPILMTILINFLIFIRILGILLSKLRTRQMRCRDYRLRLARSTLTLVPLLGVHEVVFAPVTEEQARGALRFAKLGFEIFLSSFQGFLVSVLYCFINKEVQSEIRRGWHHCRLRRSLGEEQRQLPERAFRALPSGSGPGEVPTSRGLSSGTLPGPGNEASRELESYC

[3] = target: recombinant human glucagon receptor (human) (UniProt P47871)
Chain of recombinant human glucagon receptor (human) (P47871 26-477): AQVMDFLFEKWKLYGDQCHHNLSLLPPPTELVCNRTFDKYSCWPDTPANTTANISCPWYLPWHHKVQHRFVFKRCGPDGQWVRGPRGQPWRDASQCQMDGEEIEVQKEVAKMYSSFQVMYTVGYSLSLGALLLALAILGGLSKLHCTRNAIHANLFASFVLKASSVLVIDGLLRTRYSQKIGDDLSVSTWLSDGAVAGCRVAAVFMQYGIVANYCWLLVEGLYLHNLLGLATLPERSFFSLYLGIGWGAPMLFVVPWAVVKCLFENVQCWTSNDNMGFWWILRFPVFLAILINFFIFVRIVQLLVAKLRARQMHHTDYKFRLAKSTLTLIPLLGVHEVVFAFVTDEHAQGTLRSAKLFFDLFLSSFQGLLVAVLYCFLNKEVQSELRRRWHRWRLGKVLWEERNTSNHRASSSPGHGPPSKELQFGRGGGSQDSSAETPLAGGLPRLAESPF

Chain of human Glucagon-Like Peptide-1 receptor (human) (P43220 24-463): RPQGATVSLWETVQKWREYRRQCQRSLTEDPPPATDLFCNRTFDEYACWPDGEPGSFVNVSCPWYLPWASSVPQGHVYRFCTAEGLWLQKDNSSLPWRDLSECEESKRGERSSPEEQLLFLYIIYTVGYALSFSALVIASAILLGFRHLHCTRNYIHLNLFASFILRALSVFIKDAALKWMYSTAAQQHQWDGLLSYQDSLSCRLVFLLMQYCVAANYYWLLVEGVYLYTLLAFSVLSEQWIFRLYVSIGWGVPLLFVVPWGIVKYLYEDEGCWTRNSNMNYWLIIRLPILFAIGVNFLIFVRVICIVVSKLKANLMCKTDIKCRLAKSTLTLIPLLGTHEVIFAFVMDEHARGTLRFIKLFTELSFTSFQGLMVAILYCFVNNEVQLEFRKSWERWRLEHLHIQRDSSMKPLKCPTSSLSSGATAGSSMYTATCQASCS
Chain of dulaglutide (Fc fusion) (chain): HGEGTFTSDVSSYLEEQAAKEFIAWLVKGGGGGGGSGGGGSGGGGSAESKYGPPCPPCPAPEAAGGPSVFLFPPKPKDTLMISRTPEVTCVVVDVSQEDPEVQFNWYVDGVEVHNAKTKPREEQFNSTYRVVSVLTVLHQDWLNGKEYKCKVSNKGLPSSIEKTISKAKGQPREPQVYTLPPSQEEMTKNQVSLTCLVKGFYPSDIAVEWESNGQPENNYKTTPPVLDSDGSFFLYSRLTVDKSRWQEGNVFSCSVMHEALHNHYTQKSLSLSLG

EC50, GLP-1 Receptor Assay (cAMP); sample C6.5-4 C.-4 wk [1]: 0.00037 µM
EC50, GLP-1 Receptor Assay (cAMP); sample C6.5-40 C.-4 wk [1]: 0.00031 µM
EC50, GLP-1 Receptor Assay (cAMP); sample C6.5MT-4 C.-4 wk [1]: 0.0004 µM
EC50, GLP-1 Receptor Assay (cAMP); sample C6.5MT-40 C.-4 wk [1]: 0.00029 µM
EC50, GIP Receptor Assay (cAMP); sample C6.5-4 C.-4 wk [2]: > 0.1 µM
EC50, GIP Receptor Assay (cAMP); sample C6.5-40 C.-4 wk [2]: > 0.1 µM
EC50, GIP Receptor Assay (cAMP); sample C6.5MT-4 C.-4 wk [2]: > 0.1 µM
EC50, GIP Receptor Assay (cAMP); sample C6.5MT-40 C.-4 wk [2]: > 0.1 µM
EC50, Gcg Receptor Assay (cAMP); sample C6.5-4 C.-4 wk [3]: 0.0519 µM
EC50, Gcg Receptor Assay (cAMP); sample C6.5-40 C.-4 wk [3]: > 0.1 µM
EC50, Gcg Receptor Assay (cAMP); sample C6.5MT-4 C.-4 wk [3]: 0.054 µM
EC50, Gcg Receptor Assay (cAMP); sample C6.5MT-40 C.-4 wk [3]: > 0.1 µM
Substance: dulaglutide (Fc fusion)
